T1: hIFNγRβ.SG.hFc (human, UniProt P38484 28-246)
T1 construct: also called pCTR 2828; not shown: hinge, CH2 and CH3 regions of human IgG1 (hFc)
T1 sequence: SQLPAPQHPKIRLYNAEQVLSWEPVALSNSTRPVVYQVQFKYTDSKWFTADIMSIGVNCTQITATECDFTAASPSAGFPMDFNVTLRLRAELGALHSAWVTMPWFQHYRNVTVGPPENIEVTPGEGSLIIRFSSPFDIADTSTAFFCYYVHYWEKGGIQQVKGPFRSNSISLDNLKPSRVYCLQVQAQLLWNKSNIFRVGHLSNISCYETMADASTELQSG

B1: hIFNγRα(1-239).SG.hFc (Fc fusion, not shown: a dimerising Fc or GST)
chain: EMGTADLGPSSVPTPTNVTIESYNMNPIVYWEYQIMPQVPVFTVEVKNYGVKNSEWIDACINISHHYCNISDHVGDPSNSLWVRVKARVGQKESAYAKSEEFAVCRDGKIGPPKLDIRKEEKQIMIDIFHPSVFVNGDEQEVDYDPETTCYIRVYNVYVRMNGSEIQYKILTQKEDDCDEIQCQLAIPVSSLNSQYCVSAEGVLHVWGVTTEKSKEVCITIFSG
B2: hIFNγRα(1-239).TG.hFc.ARA.hIFNγRβ (Fc fusion, not shown: a dimerising Fc or GST)
chain (part 1 of 2): B1 chain with S223T
chain (part 2 of 2): ARASQLPAPQHPKIRLYNAEQVLSWEPVALSNSTRPVVYQVQFKYTDSKWFTADIMSIGVNCTQITATECDFTAASPSAGFPMDFNVTLRLRAELGALHSAWVTMPWFQHYRNVTVGPPENIEVTPGEGSLIIRFSSPFDIADTSTAFFCYYVHYWEKGGIQQVKGPFRSNSISLDNLKPSRVYCLQVQAQLLWNKSNIFRVGHLSNISCYETMADASTELQ
B3: hIFNγRβ(C174S).SG.hFc (Fc fusion)
chain: T1 sequence with C147S
notes: also called pCTR 2848; not shown: hinge, CH2 and CH3 regions of human IgG1 (hFc)
B4: hIFNγRβ.TG.hIFNγRα(1-239).SG.hFc (Fc fusion)
chain: SQLPAPQHPKIRLYNAEQVLSWEPVALSNSTRPVVYQVQFKYTDSKWFTADIMSIGVNCTQITATECDFTAASPSAGFPMDFNVTLRLRAELGALHSAWVTMPWFQHYRNVTVGPPENIEVTPGEGSLIIRFSSPFDIADTSTAFFCYYVHYWEKGGIQQVKGPFRSNSISLDNLKPSRVYCLQVQAQLLWNKSNIFRVGHLSNISCYETMADASTELQTGMALLFLLPLVMQGVSRAEMGTADLGPSSVPTPTNVTIESYNMNPIVYWEYQIMPQVPVFTVEVKNYGVKNSEWIDACINISHHYCNISDHVGDPSNSLWVRVKARVGQKESAYAKSEEFAVCRDGKIGPPKLDIRKEEKQIMIDIFHPSVFVNGDEQEVDYDPETTCYIRVYNVYVRMNGSEIQYKILTQKEDDCDEIQCQLAIPVSSLNSQYCVSAEGVLHVWGVTTEKSKEVCITIFSG
notes: PCTR number 2843 is printed for two different constructs (r17 and r19); also called pCTR 2843; R2-R1-Fc; not shown: hinge, CH2 and CH3 regions of human IgG1 (hFc)
B5: human interferon γ (ligand, UniProt P01579 24-166, looked up)
chain: QDPYVKEAENLKKYFNAGHSDVADNGTLFLGILKNWKEESDRKIMQSQIVSFYFKLFKNFKDDQSIQKSVETIKEDMNVKFFNSNKKKRDDFEKLTNYSVTDLNVQRKAIHELIQVMAELSPAAKTGKRKRSQMLFRGRRASQ
notes: Injected in solution over captured fusion proteins (BiaCore); Recombinant human IFNγ at 4 pM in the luciferase bioassays; also called IFNγ; human IFNγ

Changes are numbered by the printed parent chain. Numbers in names are those of the source.

In test [1] the target is B5. Briefly: cell-based or functional assay.
The target of test [2] is B5. Briefly: BiaCore, fusion captured by anti-human Fc, human IFNγ injected. How it is done:
(§1) The affinity of the interferon γ-binding fusion polypeptides for human interferon γ was measured using a BlAcore 2000™ or BlAcore 3000™, as described in WO 00/75319, herein specifically incorporated by reference in its entirety. Briefly, the IFNγ-specific polypeptides were produce as small-scale supernatants by transiently transfecting CHO cells, using Lipofectamine/LIPO Plus® (Life Technologies), with DNA constructs encoding the proteins. Supernatants were collected after 72 hours and protein expression was measured by Western blotting with anti-human Fc HRP-conjugated antibody (Promega) and visualized by ECL (Pierce). Briefly, 5.4×10⁵ CHOK1 cells per well of a 6 well tissue culture dish were transfected using 1 μg of DNA and 5 μl of lipofectamine in OptiMEM™ (Gibco). After 12 h the cells were washed with OptiMEM™ and 2 ml of CHO serum free medium (Gibco) was added. After 60 h and 72 h the media was collected and centrifuged to remove cellular debris. For the BiaCore™ analysis, the IFNγ-binding fusion polypeptides from the transiently transfected CHO supernatants were captured onto the chip surface using anti-human Fc antibodies. Various concentrations of human IFNγ are injected over the surface and the time course of association and dissociation are monitored. Kinetic analyses using BIA evaluation software were performed to obtain the association and dissociation rate constants.

Test [3] concerns the target B5. Briefly: BiaCore (SPR), fusion captured by anti-human Fc, human IFNγ injected; R2-R1-Fc configuration. How it is done: as §1
(In general: In SPR one partner is held on a chip, and binding of the other changes the refractive index at the surface.)

The target in the test “hIFNγRα(1-239).SG.hFc” is B1. As to the kind of experiment: BiaCore (SPR), fusion from CHO supernatant captured by anti-human Fc, human IFNγ injected. How it is done: as §1
Another test addresses T1, hIFNγRβ.SG.hFc. As to the kind of experiment: BiaCore, fusion captured by anti-human Fc, human IFNγ injected. As for the experimental part: as §1
For test [4], the target named is B2. Briefly: BiaCore (SPR), fusion captured by anti-human Fc, human IFNγ injected; R1-Fc-R2 configuration. How it is done: as §1

B1: in the test with human interferon γ [1], the “IC50 (M), GAS-luciferase bioassay in HEK293 cells” value (“IC50 (M), GAS-luciferase bioassay” for short) was 7.9e-09 M and the “IC50 (M), ISRE-luciferase bioassay in HEK293 cells” value (from here on “IC50 (M), ISRE-luciferase bioassay”) was determined as 6.2e-09 M.

As to B2, in the test with human interferon γ [1], the “IC50 (M), GAS-luciferase bioassay” value was 1.6e-08 M and the “IC50 (M), ISRE-luciferase bioassay” value worked out at 8e-07 M.

For the molecule B3, the binding result with human interferon γ [2] was “no binding”.

In general, Kd refers to the equilibrium constant for the complex coming apart. Low values mean tighter binding, high ones weaker binding. For the molecule B4, in the test with human interferon γ [1], the “IC50 (M), GAS-luciferase bioassay” value worked out at 9.8e-09 M and the “IC50 (M), ISRE-luciferase bioassay” value is 1.46e-08 M. Besides, the equilibrium dissociation constant (Kd) in the test with human interferon γ [3] is > 10 nM.

Take B5: the Kd in the test with hIFNγRα(1-239).SG.hFc was 6 nM; in test [4], > 10 nM. Also, the binding result in the test with hIFNγRβ.SG.hFc is reported as “no binding”.
